# Source: publication doi:10.1101/2021.12.08.471876
# Target: purified recombinant GRP78 protein (GRP78-His) (human) (UniProt P11021)
# Assay: ITC
# Sequence of HBV particles (P03146 whole entry, looked up): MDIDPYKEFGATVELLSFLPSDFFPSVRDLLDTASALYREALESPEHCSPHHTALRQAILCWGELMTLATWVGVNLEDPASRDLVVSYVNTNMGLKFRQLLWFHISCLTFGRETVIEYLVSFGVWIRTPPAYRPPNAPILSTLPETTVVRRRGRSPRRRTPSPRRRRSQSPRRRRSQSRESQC
# Sequence of HBV particles (P03138 whole entry, looked up): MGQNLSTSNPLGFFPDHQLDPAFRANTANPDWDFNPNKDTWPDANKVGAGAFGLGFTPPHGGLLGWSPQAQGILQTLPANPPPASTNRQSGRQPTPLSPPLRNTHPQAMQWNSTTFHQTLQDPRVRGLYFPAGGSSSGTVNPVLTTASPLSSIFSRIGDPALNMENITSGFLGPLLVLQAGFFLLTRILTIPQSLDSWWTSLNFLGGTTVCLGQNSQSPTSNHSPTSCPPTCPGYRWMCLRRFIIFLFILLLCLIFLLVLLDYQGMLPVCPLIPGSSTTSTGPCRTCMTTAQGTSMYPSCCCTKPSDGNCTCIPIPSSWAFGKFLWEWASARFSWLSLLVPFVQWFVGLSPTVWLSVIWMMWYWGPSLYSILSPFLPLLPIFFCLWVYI
# Sequence of purified recombinant GRP78 protein (GRP78-His) (human) (P11021 19-654): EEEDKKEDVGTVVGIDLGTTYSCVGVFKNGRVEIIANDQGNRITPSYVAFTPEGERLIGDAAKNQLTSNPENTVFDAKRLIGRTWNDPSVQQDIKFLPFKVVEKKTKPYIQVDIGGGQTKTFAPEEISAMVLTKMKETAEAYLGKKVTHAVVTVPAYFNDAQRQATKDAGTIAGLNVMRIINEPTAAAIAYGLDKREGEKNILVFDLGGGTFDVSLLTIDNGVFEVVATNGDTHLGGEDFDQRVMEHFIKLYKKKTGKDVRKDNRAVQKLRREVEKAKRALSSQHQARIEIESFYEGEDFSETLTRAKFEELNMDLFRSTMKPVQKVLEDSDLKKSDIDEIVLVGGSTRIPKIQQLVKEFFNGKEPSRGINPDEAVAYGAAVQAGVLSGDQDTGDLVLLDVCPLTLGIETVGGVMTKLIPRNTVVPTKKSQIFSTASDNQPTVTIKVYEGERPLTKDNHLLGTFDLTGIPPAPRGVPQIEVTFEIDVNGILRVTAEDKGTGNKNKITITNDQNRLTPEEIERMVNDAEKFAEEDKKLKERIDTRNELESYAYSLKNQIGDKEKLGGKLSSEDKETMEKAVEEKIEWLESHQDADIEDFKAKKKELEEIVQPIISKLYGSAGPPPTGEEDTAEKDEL
substance,measurement,value
HBV particles (from UniProt P03138;P03146) (complex),Kd,75.6 µM
